In patent US20230265179A1 (TWIST BIOSCIENCE, published 2023):
Numbering of substitutions follows the chain as printed.

T1: CD40L (UniProt P29965 1-261, limits assumed)
T1 construct: whole, on cells; also called cytokine over-expressing Expi293 cells (CD40L)
T1 sequence (looked up): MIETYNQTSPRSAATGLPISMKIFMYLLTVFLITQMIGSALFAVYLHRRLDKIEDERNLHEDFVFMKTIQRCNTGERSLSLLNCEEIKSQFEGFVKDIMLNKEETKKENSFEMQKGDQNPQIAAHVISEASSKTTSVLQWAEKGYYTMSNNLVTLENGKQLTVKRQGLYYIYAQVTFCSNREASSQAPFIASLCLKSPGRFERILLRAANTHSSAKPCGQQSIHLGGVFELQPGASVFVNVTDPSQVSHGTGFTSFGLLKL

B1: CD40L-205 (antibody, V domains shown)
VH: EVQLLESGGGLVQPGGSLRLSCAASGFDFSDYEMSWVRQAPGKGLEWVSSITSEGGSTYYADSVKGRFTISRDNSKNTLYLQMNSLRAEDTAVYYCAKPDVLFDYWGQGTLVTVSS
VL: DIQMTQSPSSLSASVGDRVTITCSGDNLGDKYVHWYQQKPGKAPKLLIYGKNIRPSGVPSRFSGSGSGTDFTLTISSLQPEDFANYYCQQTYSIPYTFGQGTKVEIK
B2: CD40L-207 (antibody, V domains shown)
VH: B1 VH with D28T, S30E, Y32T, S35D, V101K, L102D
VL: DIQMTQSPSSLSASVGDRVTITCRASQRISSFLNWYQQKPGKAPKLLIYDASNLQSGVPSRFSGSGSGTDFTLTISSLQPEDFATYYCQPSFYFPYAFGQGTKVEIK
B3: CD40L-208 (antibody, V domains shown)
VH: B1 VH with D28T, S30A, D31S, S35T, V101K, L102D
VL: DIQMTQSPSSLSASVGDRVTITCRASQTIGDYLNWYQQKPGKAPKLLIYLGSELQSGVPSRFSGSGSGTDFTLTINSLQPEDFATYYCQTWDTGESGVFGQGTKVEIK
B4: CD40L-210 (antibody, V domains shown)
VH: EVQLLESGGGLVQPGGSLRLSCAASGGYNFRDYMHWVRQAPGKGLEWVATISGGGINTYYPDSVKGRFTISRDNSKNTLYLQMNSLRAEDTAVYYCAKDLGQGFDYWGQGTLVTVSS
VL: DIQMTQSPSSLSASVGDRVTITCSGDKLGDKYTSWYQQKPGKVPKLLIYQNDKRPSGVPSRFSGSGSGTDFTLTISSLQPEDFATYYCQQNNNWPTTFGQGTKVEIK
B5: CD40L-211 (antibody, V domains shown)
VH: EVQLLESGGGLVQPGGSLRLSCAASGGYNFRDYMHWVRQAPGKGLEWVAEIRNKANNHATKYADSVKGRFTISRDNSKNTLYLQMNSLRAEDTAVYYCAKNLGQGFDYWGQGTLVTVSS
VL: DIQMTQSPSSLSASVGDRVTITCRASQTIGDYLNWYQQKPGKAPKLLIYETSKLASGVPSRFSGSGSGTDFTLTISSLQPEDFATYYCQQSYSTPTFGQGTKVEIK
B6: CD40L-214 (antibody, V domains shown)
VH: B1 VH with D28T, S30E, Y32T, S35D
VL: DIQMTQSPSSLSASVGDRVTITCSGDNLRGYYASWYQQKPGKAPKLLIYGENSRPSGVPSRFSGSGSGTDFTLTISSLQPEDFATYYCQQSYENPLTFGQGTKVEIK
B7: CD40L-216 (antibody, V domains shown)
VH: B1 VH with V101Q, L102F
VL: DIQMTQSPSSLSASVGDRVTITCRASQPIAYFLSWYQQKPGKAPKLLIYENNNRPSGVPSRFSGSGSGTDFTLTISSLQPEDFATYYCQPSFLYPYTFGQGTKVEIK
B8: CD40L-217 (antibody, V domains shown)
VH: B1 VH with D28T, S30A, D31S, S35T, V101K, L102I
VL: DIQMTQSPSSLSASVGDRVTITCKASENVDTYVSWYQQKPGKAPKLLIYDDIDRPSGVPSRFSGSGSGTDFTLTISSLQPEDFATYYCQQSYSSPRTFGQGTKVEIK
B9: CD40L-218 (antibody, V domains shown)
VH: B1 VH
VL: DIQMTQSPSSLSASVGDRVTITCRTSQSLSSYLHWYQQKPGKAPKLLIYQNDKRPSGVPSRFSGSGSGTDFTLTISSLQPEDFATYYCKQSYDLFTFGQGTKVEIK
B10: CD40L-219 (antibody, V domains shown)
VH: B1 VH with V101Q, L102F
VL: DIQMTQSPSSLSASVGDRVTITCRASQSISNNLNWYQQKPGKAPKLLIYGTSYRYSGVPSRFSGSGSGTDFTLTISSLQPEDFATYYCQQTYDTPLTFGQGTKVEIK
B11: CD40L-220 (antibody, V domains shown)
VH: B4 VH with A49S, T50S, S52T, G53S, G54E, I56G, N57S, P61A
VL: B10 VL with A25T, S28D, S30G, N32Y, Q90P, T91S, Y92F, D93V, T94F, L96Y
B12: CD40L-233 (antibody, V domains shown)
VH: B1 VH with D28T, S30E, E33Q, S35G, V101K, L102D
VL: DIQMTQSPSSLSASVGDRVTITCRASQFIGRYFNWYQQKPGKAPKLLIYGATILADGVPSRFSGSGSGTDFTLTISSLQPEDFATYYCQQNNNWPTTFGQGTKVEIK
B13: CD40L-239 (antibody, V domains shown)
VH: EVQLLESGGGLVQPGGSLRLSCAASGFIFQWYDMGWVRQAPGKGLEWVSSINDRGDQTYYADSVKGRFTISRDNSKNTLYLQMNSLRAEDTAVYYCARVAFSGSFDYWGQGTLVTVSS
VL: DIQMTQSPSSLSASVGDRVTITCRASQSILSYLNWYQQKPGKAPKLLIYFTSTLAAGVPSRFSGSGSGTDFTLTISSLQPEDFATYYCQQSYSSAPTFGQGTKVEIK
B14: CD40L-241 (antibody, V domains shown)
VH: B4 VH with A49S, T50S, G53D, G54H, I56F, P61A, D99N
VL: DIQMTQSPSSLSASVGDRVTITCRTSQDISNYLNWYQQKPGKAPKLLIYAASNVESGVPSRFSGSGSGTDFTLTISSLQPEDFATYYCASRNGWNHVVFGQGTKVEIK
B15: CD40L-250 (antibody, V domains shown)
VH: EVQLLESGGGLVQPGGSLRLSCAASGFIFQWYDMGWVRQAPGKGLEWVSSIDWRGLLTYYADSVKGRFTISRDNSKNTLYLQMNSLRAEDTAVYYCAKAYYGGFDYWGQGTLVTVSS
VL: not shown
B16: CD40L-266 (antibody, V domains shown)
VH: EVQLLESGGGLVQPGGSLRLSCAASGGYNFRDYMHWVRQAPGKGLEWVGKINYAGNTDYNDSVKGRFTISRDNSKNTLYLQMNSLRAEDTAVYYCAKNLGQGFDYWGQGTLVTVSS
VL: DIQMTQSPSSLSASVGDRVTITCRASQNIRSYLNWYQQKPGKAPKLLIYSASVLQSGVPSRFSGSGSGTDFTLTISSLQPEDFATYYCKSRAYSGNLVEFGQGTKVEIK
B17: CD40L-319 (antibody, V domains shown)
VH: EVQLLESGGGLVQPGGSLRLSCAASGFTFGHYAMGWVRQAPGKGLEWVSAISGSGAGTYYADSVKGRFTISRDNSKNTLYLQMNSLRAEDTAVYYCATHDSPYYYIDVWGQGTLVTVSS
VL: DIQMTQSPSSLSASVGDRVTITCRASQSIYTYLNWYQQKPGKAPKLLIYTASALQTGVPSRFSGSGSGTDFTLTISSLQPEDFATYYCQQSYRIPLTFGGGTKVEIK
B18: CD40L-321 (antibody, V domains shown)
VH: EVQLLESGGGLVQPGGSLRLSCAASGFSFRSYAMSWVRQAPGKGLEWVSIISGSGGSTSYADSVKGRFTISRDNSKNTLYLQMNSLRAEDTAVYYCARYYFGLSSNWFNPWGQGTLVTVSS
VL: B17 VL with S14Y, Y30G, T31I, Y32H, T50G, A53R, R93S, I94A
B19: CD40L-342 (antibody, V domains shown)
VH: EVQLLESGGGLVQPGGSLRLSCAASGFTFSKYAMNWVRQAPGKGLEWVSAISGSGESTYYADSVKGRFTISRDNSKNTLYLQMNSLRAEDTAVYYCARAHDYDSMLMDYWGQGTLVTVSS
VL: B17 VL with Y30S, T31R, T50A, A51E, A53T, T56S, R93T, G100Q
B20: CD40L-330 (antibody, V domains shown)
VH: B19 VH
VL: B17 VL with S28T, Y30G, T31S, T50S, A53T, R93S, I94P
B21: CD40L-343 (antibody, V domains shown)
VH: B19 VH
VL: DIQMTQSPSSLSASVGDRVTITCRASQYINNYLNWYQQKPGKAPKLLIYASSTLQRGVPSRFSGSGSGTDFTLTISSLQPEDFATYYCQQSFSTPITFGQGTKVEIK
B22: CD40L-344 (antibody, V domains shown)
VH: B19 VH
VL: B17 VL with Q27E, Y30T, A53G, T56S, R93T, I94V, L96I, G100Q
B23: CD40L-338 (antibody, V domains shown)
VH: EVQLLESGGGLVQPGGSLRLSCAASGFTFGSFAMNWVRQAPGKGLEWVSAITGGGGSTYYADSVKGRFTISRDNSKNTLYLQMNSLRAEDTAVYYCAHGLAWRWGFDYWGQGTLVTVSS
VL: DIQMTQSPSSLSASVGDRVTITCRASQNIDRYLNWYQQKPGKAPKLLIYAASALQSGVPSRFSGSGSGTDFTLTISSLQPEDFATYYCQQSYSILPVTFGQGTKVEIK
B24: CD40L-379 (antibody, V domains shown)
VH: B23 VH
VL: B23 VL with Q101G
B25: CD40L-339 (antibody, V domains shown)
VH: B19 VH with K31N, N35S, S52T, E56S, S57T
VL: B10 VL with S30G, N31T, N32F, Y53N, R54L, Y55Q, T91G, D93R
B26: CD40L-340 (antibody, V domains shown)
VH: EVQLLESGGGLVQPGGSLRLSCAASGFGFSSYAMSWVRQAPGKGLEWVSAISGGGGSIYYADSVKGRFTISRDNSKNTLYLQMNSLRAEDTAVYYCATDYGDYDRLNFDLWGQGTLVTVSS
VL: B17 VL with I29V, Y30S, T31R, Y32F, T50A, A53T, T56P, R93E, I94T, G100Q

The binders below were run against T1, CD40L (assay: flow cytometry, 100 nM IgG, CD40L over-expressing Expi293 cells over parent Expi293 cells).
Procedure: All incubations and washes were in buffer containing PBS+1% BSA. MFI Ratio is defined by the mean fluorescence intensity (MFI) of the cytokine over-expressing Expi293 cell over the Expi293 parent cell. […] EC50 was calculated in GraphPad Prism.

Row | Binder | 100 nM FACS (MFI Ratio) [MFI ratio]
1 | B1 | 6.6
2 | B2 | 11.9
3 | B3 | 1.6
4 | B4 | 2.2
5 | B5 | 12.1
6 | B6 | 7.3
7 | B7 | 22.4
8 | B8 | 7.7
9 | B9 | 5.1
10 | B10 | 2.1
11 | B11 | 4.3
12 | B12 | 1.8
13 | B13 | 4.2
14 | B14 | 1.7
15 | B15 | 27.1
16 | B16 | 1.7
17 | B17 | 4.2
18 | B18 | 1.7
19 | B19 | 124
20 | B20 | 27.1
21 | B21 | 35.8
22 | B22 | 4.9
23 | B23 | 34.3
24 | B24 | 71.2
25 | B25 | 56.6
26 | B26 | 61.5
